{"source": "paper PMC12502779", "molecular_target": "T1, 6xHis-OxyR (Salmonella enterica serovar Typhi ISP1820) (UniProt Q8XF66)", "T1 sequence": "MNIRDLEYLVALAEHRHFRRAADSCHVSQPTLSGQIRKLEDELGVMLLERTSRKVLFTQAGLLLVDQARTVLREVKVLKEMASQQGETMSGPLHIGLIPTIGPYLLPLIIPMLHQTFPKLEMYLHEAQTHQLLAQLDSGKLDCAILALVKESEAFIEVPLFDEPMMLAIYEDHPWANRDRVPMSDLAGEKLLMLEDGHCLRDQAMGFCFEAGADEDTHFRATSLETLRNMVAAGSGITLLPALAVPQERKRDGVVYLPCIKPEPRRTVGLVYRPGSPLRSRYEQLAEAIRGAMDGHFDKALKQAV", "assay": "EMSA", "conditions": "EMSA with 10 nM probe, 5% acrylamide gel, RedSafe stain; buffer, salt, pH and temperature not given (as previously described, ref 27)", "data": [{"sequence": "GAAATCGGGCGTGGCATTCTGATTACTCAACAGTAATTCACGAACCCTTTTCTCGATCTCTTTCGCTGTCGCCGGGTTCTCTTTCAGCCAGGTAGTCGCGTTCGCTTTACCCTGGCCAATCTTCT (double strand) [recA]", "values": [{"measurement": "binding", "value": "no binding"}]}]}
